T1: EGL3-MBP (Arabidopsis thaliana, UniProt Q9CAD0 1-596)
T1 sequence (looked up): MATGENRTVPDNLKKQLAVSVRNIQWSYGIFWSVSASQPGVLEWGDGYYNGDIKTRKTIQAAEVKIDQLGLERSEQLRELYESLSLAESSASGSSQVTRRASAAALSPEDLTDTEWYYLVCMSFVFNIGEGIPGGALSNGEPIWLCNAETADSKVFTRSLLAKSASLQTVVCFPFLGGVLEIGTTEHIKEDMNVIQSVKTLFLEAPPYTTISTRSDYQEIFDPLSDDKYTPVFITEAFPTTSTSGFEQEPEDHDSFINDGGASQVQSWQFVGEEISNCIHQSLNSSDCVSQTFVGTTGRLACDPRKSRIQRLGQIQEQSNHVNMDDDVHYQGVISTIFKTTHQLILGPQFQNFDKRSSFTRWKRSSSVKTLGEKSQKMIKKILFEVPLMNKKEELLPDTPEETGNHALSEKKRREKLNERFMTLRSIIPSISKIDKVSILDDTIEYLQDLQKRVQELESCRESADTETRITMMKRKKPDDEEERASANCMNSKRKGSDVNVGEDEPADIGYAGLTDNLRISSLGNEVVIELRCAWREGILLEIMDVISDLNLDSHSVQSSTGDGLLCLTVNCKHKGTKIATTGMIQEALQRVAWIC

T2: TT8-MBP (Arabidopsis thaliana, UniProt Q9FT81 1-518)
T2 sequence (looked up): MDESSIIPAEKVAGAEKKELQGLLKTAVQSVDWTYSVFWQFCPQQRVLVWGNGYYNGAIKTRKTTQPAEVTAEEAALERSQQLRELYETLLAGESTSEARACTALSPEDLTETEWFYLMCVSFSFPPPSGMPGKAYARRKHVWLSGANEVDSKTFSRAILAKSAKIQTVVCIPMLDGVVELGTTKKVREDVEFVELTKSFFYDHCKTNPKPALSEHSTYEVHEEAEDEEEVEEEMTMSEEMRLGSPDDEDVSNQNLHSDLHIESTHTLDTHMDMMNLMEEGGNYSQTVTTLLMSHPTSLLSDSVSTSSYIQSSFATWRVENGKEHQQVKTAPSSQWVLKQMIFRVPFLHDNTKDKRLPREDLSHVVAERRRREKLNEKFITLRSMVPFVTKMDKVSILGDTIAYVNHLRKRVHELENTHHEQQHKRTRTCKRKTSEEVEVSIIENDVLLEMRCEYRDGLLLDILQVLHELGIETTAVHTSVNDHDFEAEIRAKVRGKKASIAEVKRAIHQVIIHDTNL

T3: MBP-MYB75 (Arabidopsis thaliana, UniProt Q9FE25 1-248)
T3 sequence (looked up): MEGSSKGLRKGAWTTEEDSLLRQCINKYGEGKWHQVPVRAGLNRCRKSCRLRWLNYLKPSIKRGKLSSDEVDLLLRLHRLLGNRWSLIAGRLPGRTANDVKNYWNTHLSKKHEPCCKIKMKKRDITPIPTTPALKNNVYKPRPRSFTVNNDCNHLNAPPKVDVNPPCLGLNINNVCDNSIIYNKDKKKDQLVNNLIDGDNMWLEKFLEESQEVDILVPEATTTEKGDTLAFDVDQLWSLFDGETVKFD

B1: His-MYB75 (natural protein, Arabidopsis thaliana, UniProt Q9FE25 1-248, looked up)
chain: MEGSSKGLRKGAWTTEEDSLLRQCINKYGEGKWHQVPVRAGLNRCRKSCRLRWLNYLKPSIKRGKLSSDEVDLLLRLHRLLGNRWSLIAGRLPGRTANDVKNYWNTHLSKKHEPCCKIKMKKRDITPIPTTPALKNNVYKPRPRSFTVNNDCNHLNAPPKVDVNPPCLGLNINNVCDNSIIYNKDKKKDQLVNNLIDGDNMWLEKFLEESQEVDILVPEATTTEKGDTLAFDVDQLWSLFDGETVKFD
B2: GST-MYB30^N (domain or fragment)
chain: not shown

How the values were obtained:
Experiment in all cases: pull-down
EGL3-MBP = molecular target: T1, EGL3-MBP
TT8-MBP = molecular target: T2, TT8-MBP
MBP-MYB75 = molecular target: T3, MBP-MYB75
His-MYB75 = molecular target: B1

Row | Binder | binding result (EGL3-MBP) | binding result (TT8-MBP) | binding result (MBP-MYB75) | binding result (His-MYB75)
1 | B1 | binds | binds |  | 
2 | B2 |  |  | binds | binds

From article PMC10943538 (Plant Communications, 2023)
